Laboratory results as given in publication PMC2872917.

Legend:
[1] = molecular target: Dam1 complex (S. cerevisiae) (UniProt P53267); assay: velocity sedimentation
microtubules = microtubules (UniProt Q6B856); assay: bead-microtubule-binding assay

| stoichiometry N [1] | density of microtubule-attached beads (beads × mm^−2) (microtubules) | Substance |
| --- | --- | --- |
| 2 |  | Dam1 complex (from UniProt P53267 1-343; Q12248 1-94) |
|  | 7800 | Ndc80 complex (from UniProt P40460 1-691; P33895 1-451) |
